According to US20230312646A1 (published 2023):

Columns and labels:
[1] = target: P47 (P32 with proline replaced by octahydroindole-2-carboxylic acid, Oic); assay: ITC, 25 C
[2] = target: P50 (hexapeptide with Oic and a C-terminal 3,4-dichlorinated phenylalanine); assay: ITC, 25 C

B1: Pseudomonas aeruginosa sliding clamp (other)
chain: MHFTIQREALLKPLQLVAGVVERRQTLPVLSNVLLVVEGQQLSLTGTDLEVELVGRVVLEDAAEPGEITVPARKLMDICKSLPNDVLIDIRVEEQKLLVKAGRSRFTLSTLPANDFPTVEEGPGSLNFSIAQSKLRRLIDRTSFAMAQQDVRYYLNGMLLEVNGGTLRSVATDGHRLAMCSLDAQIPSQDRHQVIVPRKGILELARLLTEQDGEVGIVLGQHHIRATTGEFTFTSKLVDGKFPDYERVLPRGGDKLVVGDRQQLREAFSRTAILSNEKYRGIRLQLSNGLLKIQANNPEQEEAEEEVQVEYNGGNLEIGFNVSYLLDVLGVIGTEQVRFILSDSNSSALVHEADNDDSAYVVMPMRL
notes: also called ^PaSC; P. aeruginosa
Kd [1]: 201 nM | Kd [2]: 20 nM
